Each sequence was assayed on Escherichia coli TOP10 (assay: shrunken log2 fold change of peptide-encoding DNA abundance (4.5 h post-induction vs induction); higher = less antimicrobial activity (less host growth inhibition)). Details: time post-induction: 4.5 h; library: site-saturation at positions 5, 18, 19, 20.
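Further: peptides expressed intracellularly from a pBAD plasmid library in pooled LB shake-flask culture, induced with 0.3% L-arabinose, DNA abundance read by NGS, three biological replicates, DESeq2 with apeglm shrinkage.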

| Sequence | shrunken log2 fold change |
| --- | --- |
| RRIRLRPPRLPRPRPRPINLPRP | -0.573 |
| RRIRVRPPRLPRPRPRPSICPRP | -0.208 |
| RRIRSRPPRLPRPRPRPEWNPRP | 0.119 |
| RRIRDRPPRLPRPRPRPNNMPRP | -0.0368 |
| RRIRMRPPRLPRPRPRPPMVPRP | 0.188 |
| RRIRLRPPRLPRPRPRPVAAPRP | 0.382 |
| RRIRNRPPRLPRPRPRPIVNPRP | 0.0189 |
| RRIRHRPPRLPRPRPRPQQKPRP | -0.0153 |
| RRIRPRPPRLPRPRPRPNHMPRP | -0.319 |
| RRIRLRPPRLPRPRPRPYSRPRP | 0.0264 |
| RRIRMRPPRLPRPRPRPTMLPRP | 0.0475 |
| RRIRRRPPRLPRPRPRPAYIPRP | -0.201 |
| RRIRLRPPRLPRPRPRPSCPPRP | -0.169 |
| RRIRNRPPRLPRPRPRPMDCPRP | 0.0919 |
| RRIRQRPPRLPRPRPRPISQPRP | 0.0474 |
| RRIRRRPPRLPRPRPRPKIDPRP | -0.000206 |
| RRIRNRPPRLPRPRPRPHVCPRP | -0.00663 |
| RRIRYRPPRLPRPRPRPFPMPRP | -0.834 |
| RRIRMRPPRLPRPRPRPAHDPRP | 0.673 |
| RRIRHRPPRLPRPRPRPNVPPRP | -0.0223 |
| RRIRFRPPRLPRPRPRPEAPPRP | 0.529 |
| RRIRIRPPRLPRPRPRPHELPRP | -0.156 |

| Sequence | shrunken log2 fold change |
| --- | --- |
| RRIRKRPPRLPRPRPRPQWRPRP | 0.309 |
| RRIRNRPPRLPRPRPRPAWCPRP | 0.0129 |
| RRIRERPPRLPRPRPRPETDPRP | -0.0989 |
| RRIRSRPPRLPRPRPRPVTEPRP | -0.0851 |
| RRIRERPPRLPRPRPRPPNSPRP | -0.148 |
| RRIRQRPPRLPRPRPRPTEPPRP | 0.00378 |
| RRIRSRPPRLPRPRPRPQSIPRP | -0.263 |
| RRIRYRPPRLPRPRPRPIFPPRP | -0.23 |
| RRIRYRPPRLPRPRPRPTTLPRP | -0.0157 |
| RRIRFRPPRLPRPRPRPKFGPRP | 0.039 |
| RRIRTRPPRLPRPRPRPTQRPRP | 0.11 |
| RRIRPRPPRLPRPRPRPALFPRP | 0.2 |
| RRIRKRPPRLPRPRPRPVIQPRP | -0.0501 |
| RRIRPRPPRLPRPRPRPAAQPRP | 0.721 |
| RRIRDRPPRLPRPRPRPLNLPRP | -0.324 |
| RRIRHRPPRLPRPRPRPTAQPRP | -0.054 |
| RRIRGRPPRLPRPRPRPQILPRP | -0.0843 |
| RRIRARPPRLPRPRPRPMCYPRP | -0.112 |
| RRIRTRPPRLPRPRPRPYLPPRP | -0.513 |
| RRIRERPPRLPRPRPRPCNRPRP | -0.0134 |
| RRIRPRPPRLPRPRPRPDGRPRP | 0.101 |
| RRIRKRPPRLPRPRPRPINMPRP | -0.196 |

| Sequence | shrunken log2 fold change |
| --- | --- |
| RRIRLRPPRLPRPRPRPLKCPRP | -0.0489 |
| RRIRQRPPRLPRPRPRPIDCPRP | 0.0167 |
| RRIRFRPPRLPRPRPRPANAPRP | -0.0885 |
| RRIRPRPPRLPRPRPRPSMRPRP | 0.501 |
| RRIRWRPPRLPRPRPRPCAHPRP | -0.107 |
| RRIRHRPPRLPRPRPRPWKEPRP | -0.0223 |
| RRIRYRPPRLPRPRPRPFCWPRP | -0.212 |
| RRIRRRPPRLPRPRPRPEMLPRP | 0.0638 |
| RRIRCRPPRLPRPRPRPATWPRP | -0.104 |
| RRIRARPPRLPRPRPRPSMTPRP | 0.2 |
| RRIRWRPPRLPRPRPRPMPKPRP | 0.115 |
| RRIRCRPPRLPRPRPRPQYDPRP | -0.644 |
| RRIRFRPPRLPRPRPRPYVVPRP | -0.252 |
| RRIRVRPPRLPRPRPRPSCYPRP | -0.568 |
| RRIRVRPPRLPRPRPRPNGDPRP | -0.187 |
| RRIRIRPPRLPRPRPRPSQEPRP | -0.317 |
| RRIRKRPPRLPRPRPRPIPHPRP | 0.359 |
| RRIRARPPRLPRPRPRPTAYPRP | 0.223 |
| RRIRGRPPRLPRPRPRPFHIPRP | -0.14 |
| RRIRARPPRLPRPRPRPTESPRP | 0.659 |
| RRIRMRPPRLPRPRPRPKRIPRP | 0.609 |
| RRIRHRPPRLPRPRPRPWYYPRP | -1.47 |

| Sequence | shrunken log2 fold change |
| --- | --- |
| RRIRWRPPRLPRPRPRPIKEPRP | 0.0169 |
| RRIRFRPPRLPRPRPRPKYRPRP | 0.225 |
| RRIRIRPPRLPRPRPRPHQHPRP | -0.351 |
| RRIRNRPPRLPRPRPRPNPQPRP | 0.166 |
| RRIRIRPPRLPRPRPRPMQDPRP | -0.223 |
| RRIRSRPPRLPRPRPRPGAVPRP | 0.324 |
| RRIRDRPPRLPRPRPRPPCQPRP | 0.029 |
| RRIRTRPPRLPRPRPRPNGNPRP | -0.302 |
| RRIRERPPRLPRPRPRPQMTPRP | -0.312 |
| RRIRWRPPRLPRPRPRPETSPRP | 0.7 |
| RRIRCRPPRLPRPRPRPTCAPRP | 0.178 |
| RRIRFRPPRLPRPRPRPHKQPRP | -0.0759 |
| RRIRARPPRLPRPRPRPAMTPRP | 0.356 |
| RRIRERPPRLPRPRPRPPEHPRP | 0.114 |
| RRIRERPPRLPRPRPRPLKSPRP | -0.169 |
| RRIRERPPRLPRPRPRPGLNPRP | 0.127 |
| RRIRFRPPRLPRPRPRPTIVPRP | 0.0438 |
| RRIRARPPRLPRPRPRPMWGPRP | 0.115 |
| RRIRCRPPRLPRPRPRPCGEPRP | 0.218 |
| RRIRSRPPRLPRPRPRPVNMPRP | -0.103 |
| RRIRERPPRLPRPRPRPDVLPRP | -0.138 |
| RRIRNRPPRLPRPRPRPFKDPRP | -0.327 |

| Sequence | shrunken log2 fold change |
| --- | --- |
| RRIRKRPPRLPRPRPRPWWMPRP | 0.105 |
| RRIRWRPPRLPRPRPRPRQWPRP | 0.0802 |
| RRIRHRPPRLPRPRPRPTCIPRP | -0.147 |
| RRIRIRPPRLPRPRPRPNHMPRP | -0.361 |
| RRIRSRPPRLPRPRPRPAYCPRP | 0.149 |
| RRIRIRPPRLPRPRPRPCLRPRP | -1.04 |
| RRIRHRPPRLPRPRPRPIFVPRP | -0.358 |
| RRIRNRPPRLPRPRPRPCSHPRP | -0.331 |
| RRIRMRPPRLPRPRPRPTHFPRP | 0.86 |
| RRIRERPPRLPRPRPRPKWLPRP | 0.226 |
| RRIRWRPPRLPRPRPRPPEQPRP | 0.153 |
| RRIRTRPPRLPRPRPRPKNTPRP | -0.508 |
| RRIRTRPPRLPRPRPRPYNQPRP | -0.33 |
| RRIRIRPPRLPRPRPRPQSDPRP | -0.212 |
| RRIRIRPPRLPRPRPRPNREPRP | -0.0355 |
| RRIRQRPPRLPRPRPRPCLYPRP | -0.29 |
| RRIRIRPPRLPRPRPRPHRAPRP | 0.0775 |
| RRIRIRPPRLPRPRPRPGFLPRP | -0.328 |
| RRIRHRPPRLPRPRPRPYEKPRP | -0.195 |
| RRIRVRPPRLPRPRPRPQCAPRP | 0.135 |
| RRIRYRPPRLPRPRPRPGPSPRP | -0.125 |

Reference: the supplement of paper PMC9112550, “Optimization of the antimicrobial peptide Bac7 by deep mutational scanning” (BMC Biology, 2022)
